Laboratory results reported in PMC9585320 (Frontiers in Molecular Biosciences, 2022).

T1: MazF9 toxin, (His)6MazF(FLAG)3 (Mycobacterium tuberculosis, UniProt P71650 1-118)
T1 chain: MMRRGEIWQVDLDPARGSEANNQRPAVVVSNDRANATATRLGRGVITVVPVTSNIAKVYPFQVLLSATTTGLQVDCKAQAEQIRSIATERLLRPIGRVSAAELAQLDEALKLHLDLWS

B1: C-terminal MazE9 peptide (residues 43-76) (peptide)
chain: LEDDYANAWQEWSAAGDTDAWEQTVGDGVGDAPR
B2: MazE6 antitoxin, full length, purified (natural protein)
chain: MKTAISLPDETFDRVSRRASELGMSRSEFFTKAAQRYLHELDAQLLTGQIDRALESIHGTDEAEALAVANAYRVLETMDDEW
B3: C-terminal MazE3 peptide (residues 72-106) (peptide)
chain: RLAERDAEILATNTSATGDLDTLAGHCARTALDID

How the values were obtained:
[1] = biological target: T1, MazF9 toxin, (His)6MazF(FLAG)3; assay: MST
MazF6 library = assay: flow cytometry on cells

Binder | Kd [1] [nM] | Kd (MazF6 library) [nM]
B1 | 5.2 | –
B2 | – | 0.13
B3 | 173 | –
